Positions count from the first letter of the chain named. Read-outs that look alike come from different tables or passages of the source.
B1: Antibody #25, CD19×CD3 DICAD (bispecific antibody, name in Kabat numbering)
chain 1: DIQLTQSPASLAVSLGQRATISCKASQSVDYDGDSYLNWYQDIPGQPPKLLIYDASNLVSGIPPRFSGSGSGTDFTLNIHPVEKVDAATYHCQQSTEDPWTFGGGTKLEIKGGSGGSGGSEVQLVESGGGLVQPGGSLRLSCAASGYSFTGYTMNWVRDAPGKCLEWVALINPYKGVSTYNQKFKDRFTISVDKSKNTAYLQMNSLRAEDTAVYYCARSGYYGDSDWYFDVWGQGTLVTVSS
chain 2: DIQMTQSPSSLSASVGDRVTITCRASQDIRNYLNWYQKKPGKAPKLLIYYTSRLESGVPSRFSGSGSGTDYTLTISSLQPEDFATYYCQQGNTLPWTFGCGTKVEIKGGSGGSGGSQVQLQQSGAELVRPGSSVKISCKASGYAFSSYWMNWVKKRPGQGLEWIGQIWPGDGDTNYNGKFKGKATLTADESSSTAYMQLSSLASEDSAVYFCARRETTTVGRYYYAMDYWGQGTSVTVSS
notes: Same mutations as #9, with the 9-residue linker; also called 025; Sample25; not shown: hinge-CH2-CH3
B2: Antibody #43, CD19×CD3 DICAD (bispecific antibody)
chain 1: B1 chain 1 with D42Q
chain 2: B1 chain 2 with K155Q
notes: also called 043; Sample43; not shown: hinge-CH2-CH3
B3: Antibody #63, DICAD CD19×CD3 (1:1) bispecific (bispecific antibody)
chain 1: EIVLTQSPATLSVTPGERATLSCSASSSVSYMHWYQKKPGQAPRLLIYDTSKLASGIPARFSGSGSGTDFTLTISSLEPEDFAVYYCFQGSVYPFTFGCGTKLEIKRTVAAEVQLVESGGGLVQPGGSLRLSCAASGFTFNTYAMNWVRKAPGKGLEWVGRIRSKYNNYATYYADSVDKGRFTISRDDSKNSLYLQMNSLKTEDTAVYYCVRHGNFGNSYVSWFAYWGQGTLVTVSS
chain 2: EAVVTQEPSLTVSPGGTVTLTCRSSTGAVTTSNYANWVQDKPGQAPRGLIGGTNKRAPWTPARFSGSLLGGKAALTITGAQPEDEAGYYCALWYSNLWVFGGGTKLTVLRTVAAQVQLQESGPGLVKPSQTLSLTCTVSGGSISTSGMGVGWIRDHPGKCLEWIGHIWWDDDKRYNPALKSRVTISVDTSKNQFSLKLSSVTAADTAVYYCARMELWSYYFDYWGQGTTLTVSSASEPKSDKTHTCPPCPAPPVAGGPSVPLPPPKPKDTLMISRTPEVTCVVVDVSQEDPEVKFNWYVDGVGVHNAKTKPREEQFNSTYRVVSVLTVLHQDWLNGKEYKCKVSNKGLPSSIEKTISKAKGQPREPQVYTLPPCRDELTKNQVSLWCLVKGFYPSDIAVEWESNGQPENNYKTTPPVLDSDGSFFLYSKLTVDKSRWQQGNVFSCSVMHEALHNHYTQKSLSLSPGK
chain 3: DKTHTCPPCPAPPVAGGPSVFLFPPKPKDTLMISRTPEVTCVVVDVSQEDPEVKFNWYVDGVEVHNAKTKPREEQFNSTYRVVSVLTVLHQDWLNGKEYKCKVSNKGLPSSIEKTISKAKGQPREPQVCTLPPSRDELTKNQVSLSCAVKGFYPSDIAVEWESNGQPENNYKTTPPVLDSDGSFFLVSKLTVDKSRWQQGNVFSCSVMHEALHNRFTQKSLSLSPGK
notes: also called 063; #63-CD3×CD19 bispecific
B4: Antibody #55, CD3×CD19×CD8 tri-specific antibody (other)
chain 1: B3 chain 1
chain 2: B3 chain 2
heavy: QVQLVESGGGVVQPGRSLRLSCAASGPTFSDFGMNWVRKAPGKGLEWVALIYYDGSNKFYADSVKGRFTISRDNSKNTLYLQMNSLRAEDTAVYYCAKPHYDGYYHFFDSWGQGTLVTVSSASTKGPSVFPLAPGSSKSTSGTAALGCLVKDYFPEPVTVSWNSGALTSGVHTFPAVLQSSGLYSLSSVVTVPSSSLGTQTYICNVNHKPSNTKVDKKVEPKSCDKTHTCPPCPAPPVAGGPSVFLFPPKPKDTLMISRTPEVTCVVVDVSQEDPEVKFNWYVDGVEVHNAKTKPREEQFNSTYRVVSVLTVLHQDWLNGKEYKCKVSNKGLPSSIEKTISKAKGQPREPQVCTLPPSRDELTKNQVSLSCAVKGFYPSDIAVEWESNGQPENNYKTTPPVLDSDGSFFLVSKLTVDKSRWQQGNVFSCSVMHEALHNRFTQKSLSLSPGK
light: not shown
notes: Tri-specific antibody of four chains
B5: Antibody #1, CD19×CD3 Di-Diabody from HD37 and UCHT1, no interface mutations (bispecific antibody)
chain 1: DIQLTQSPASLAVSLGQRATISCKASQSVDYDGDSYLNWYQQIPGQPPKLLIYDASNLVSGIPPRFSGSGSGTDFTLNIHPVEKVDAATYHCQQSTEDPWTFGGGTKLEIKRTVAAEVQLVESGGGLVQPGGSLRLSCAASGYSFTGYTMNWVRQAPGKGLEWVALINPYKGVSTYNQKFKDRFTISVDKSKNTAYLQMNSLRAEDTAVYYCARSGYYGDSDWYFDVWGQGTLVTVSS
chain 2: DIQMTQSPSSLSASVGDRVTITCRASQDIRNYLNWYQQKPGKAPKLLIYYTSRLESGVPSRFSGSGSGTDYTLTISSLQPEDFATYYCQQGNTLPWTFGQGTKVEIKRTVAAQVQLQQSGAELVRPGSSVKISCKASGYAFSSYWMNWVKQRPGQGLEWIGQIWPGDGDTNYNGKFKGKATLTADESSSTAYMQLSSLASEDSAVYFCARRETTTVGRYYYAMDYWGQGTSVTVSS
notes: Peptide 1: CD19VL-linker-CD3VH-hinge-CH2-CH3; also called 001; Sample01; not shown: hinge-CH2-CH3
B6: Antibody #9, CD19×CD3 DICAD (bispecific antibody, name in Kabat numbering)
chain 1: B5 chain 1 with Q42D, Q155D, G160C
chain 2: B5 chain 2 with Q38K, Q100C, Q151K
notes: also called 009; not shown: hinge-CH2-CH3
B7: HD37, anti-CD19 parental antibody (#21) (antibody, V domains shown)
VH: QVQLQQSGAELVRPGSSVKISCKASGYAFSSYWMNWVKQRPGQGLEWIGQIWPGDGDTNYNGKFKGKATLTADESSSTAYMQLSSLASEDSAVYFCARRETTTVGRYYYAMDYWGQGTSVTVSS
VL: DIQLTQSPASLAVSLGQRATISCKASQSVDYDGDSYLNWYQQIPGQPPKLLIYDASNLVSGIPPRFSGSGSGTDFTLNIHPVEKVDAATYHCQQSTEDPWTFGGGTKLEIK
notes: also called 021
B8: Antibody #54, TRIAD CD19×CD3 (Fab arm anti-CD19) (bispecific antibody)
chain 1: B7 VL with Q42K, G104C
chain 2: EVQLVESGGGLVQPGGSLRLSCAASGYSFTGYTMNWVRKAPGKGLEWVALINPYKGVSTYNQKFKDRFTISVDKSKNTAYLQMNSLRAEDTAVYYCARSGYYGDSDWYFDVWGQGTLVTVSS
chain 3: DIQMTQSPSSLSASVGDRVTITCRASQDIRNYLNWYQDKPGKAPKLLIYYTSRLESGVPSRFSGSGSGTDYTLTISSLQPEDFATYYCQQGNTLPWTFGQGTKVEIK
chain 4: B7 VH with Q39D, G44C
chain 5: B7 VH
chain 6: B7 VL
B9: Antibody #50, TRIAD CD19×CD3 (Fab arm anti-CD19) (bispecific antibody)
chain 1: B8 chain 3 with D38K, Q100C
chain 2: B7 VH with Q39K
chain 3: B7 VL with Q42D
chain 4: B8 chain 2 with K39D, G44C
chain 5: B7 VH
chain 6: B7 VL

Legend:
[1] = molecular target: T1, human CD3 (human, UniProt P07766 23-126); experiment: SPR (Biacore); CD3 captured on anti-His antibody chip, antibody injected at 5 concentrations
T1 construct: not shown: A CD3 delta or gamma partner chain is possible if the reagent was a heterodimer
T1 sequence (P07766 23-126 limits assumed): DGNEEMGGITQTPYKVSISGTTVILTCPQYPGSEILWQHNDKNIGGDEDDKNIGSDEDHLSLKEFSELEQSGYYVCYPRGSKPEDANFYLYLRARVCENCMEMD
Procedure: (§1) A series of sample antibodies were assayed for SPR (Surface Plasmon Resonance) signals upon human CD3 binding on the Biacore platform. Ka, Kd and KD were calculated from the experimental results and used to evaluate affinity of the antibodies for human CD3. CD3 molecules as ligands were immobilized to chips conjugated with anti-histine antibodies. Sample antibodies, at 5 different concentrations, were injected to the system to be analyzed.

[2] = molecular target: T2, human CD19 (His-tagged) (human, UniProt P15391 20-291); experiment: SPR (Biacore); CD19 captured on anti-His antibody chip, antibody injected at 5 concentrations
T2 construct: Captured on chips carrying anti-histidine antibodies
T2 sequence (looked up): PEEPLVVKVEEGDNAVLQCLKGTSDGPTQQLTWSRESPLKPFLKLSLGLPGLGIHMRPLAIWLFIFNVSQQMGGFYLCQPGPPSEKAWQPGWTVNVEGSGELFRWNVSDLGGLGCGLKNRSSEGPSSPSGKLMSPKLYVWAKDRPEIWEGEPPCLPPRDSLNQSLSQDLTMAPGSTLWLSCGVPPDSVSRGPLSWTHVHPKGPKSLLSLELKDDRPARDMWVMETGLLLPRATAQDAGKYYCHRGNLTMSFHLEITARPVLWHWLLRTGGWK
Procedure: as §1, with “CD19” for “CD3”, “Kₐ,” for “Ka,”, “CD19. CD19” for “CD3. CD3”, “analyzed. Anti-CD3 antibody UCHT1 and anti-CD19 antibody HD37 were also examined as #20 and #21, respectively. The results are shonw in FIG. 7 and Table 15.” for “analyzed.”

[3] = molecular target: T2, human CD19 (His-tagged); experiment: SPR (BIAcore); His-tagged human CD19 captured on anti-His antibody chip, antibody at 5 concentrations
Procedure: (§2) Binding affinity for human CD3E or human CD19 of the CD3×CD19 bispecific antibody was tested by BIAcore, and Kₐ, Kd and KD values of the antibody were calculated based on the results. His-tagged human CD19 was used as ligand and captured on chips conjugated with anti-histine antibodies. Candidate molecules in five different concentrations were analyzed for their affinity for CD19. Affinity for human CD3E was examined using the same method.

[4] = molecular target: T3, human CD3E (human, UniProt P07766 23-126, limits assumed); experiment: SPR (BIAcore); human CD3E captured on anti-His antibody chip, antibody at 5 concentrations
T3 construct: Captured on chips carrying anti-histidine antibodies, 'using the same method' as the His-tagged CD19
T3 sequence (P07766 23-126 limits assumed): as the sequence (P07766 23-126 limits assumed) above
Procedure: as §2

[5] = molecular target: T3, human CD3E; experiment: as above; remark: listed apart in the source
Procedure: (§3) Binding affinity for human CD3E or human CD19 of the CD3×CD19×CD8 tri-specific antibody was tested by BIAcore. Kₐ, Kd and KD were calculated from the experimental results and used to evaluate affinity of the antibodies for human CD3E and CD19. CD3E and CD19 molecules as ligands were immobilized to chips conjugated with anti-histine antibodies. Antibody molecules in five different concentrations were analyzed for their affinity for CD19. Affinity for human CD3E was examined using the same method.

[6] = molecular target: T2, human CD19 (His-tagged); experiment: SPR (BIAcore); human CD19 captured on anti-His antibody chip, antibody at 5 concentrations
Procedure: as §3

[7] = molecular target: T2, human CD19 (His-tagged); experiment: SPR (Biacore); CD19 captured on anti-His antibody chip, antibody injected at 5 concentrations; remark: listed apart in the source
Procedure: as §1, with “Affinity: Affinity kinetics studies based on human CD19-binding assays. A” for “A”, “CD19” for “CD3”, “Kₐ,” for “Ka,”, “CD19. CD19” for “CD3. CD3”

Row | Binder | Kd [1] [nM] | Kd [2] [nM] | Kd [7] [nM] | other results
1 | B1 | 34.9 | 1 |  | 
2 | B2 | 269 | 0.537 |  | 
3 | B3 |  |  |  | Kd [3]: 1.83 nM; koff [3]: 0.000669 s⁻¹; kon [3]: 365000 M⁻¹ s⁻¹; Kd [4]: 31.4 nM; koff [4]: 0.0153 s⁻¹; kon [4]: 488000 M⁻¹ s⁻¹
4 | B4 |  |  |  | Kd [5]: 31.3 nM; Kd [6]: 8.63 nM
5 | B5 |  | 0.769 |  | 
6 | B6 | 172 | 0.26 |  | 
7 | B7 |  | 0.537 | 3.81 | binding result [1]: no binding
8 | B8 |  |  | 0.806 | 
9 | B9 |  |  | 1.73 | 
